Target: mesothelin-Fc fusion protein, immobilized on beads (UniProt Q13421)
Assay: cell-based or functional assay

Chain of UniProt Q13421 (Q13421 other isoform, or with tags, fused parts or gaps limits assumed): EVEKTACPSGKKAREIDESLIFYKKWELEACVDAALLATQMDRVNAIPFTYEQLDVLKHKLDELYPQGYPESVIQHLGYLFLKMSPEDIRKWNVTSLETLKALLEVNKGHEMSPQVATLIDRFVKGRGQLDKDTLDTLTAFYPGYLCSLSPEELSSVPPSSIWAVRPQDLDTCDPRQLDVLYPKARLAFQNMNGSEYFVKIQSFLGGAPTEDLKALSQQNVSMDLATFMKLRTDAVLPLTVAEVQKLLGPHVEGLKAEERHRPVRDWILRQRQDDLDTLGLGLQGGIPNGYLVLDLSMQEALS

Substance | Total Population Doublings (donor 1) (population doublings) | Total Population Doublings (donor 2) (population doublings) | Total Population Doublings (donor 3) (population doublings)
mesothelin-specific BBz CAR (SS1 scFv, 4-1BB and CD3z signaling domains) (receptor) | 8.8 | 8.4 | 8.4
mesothelin-specific 28z CAR (SS1 scFv, CD28 and CD3z signaling domains) (receptor) | 5.8 | 6.9 | 6
